The subject of data set [1] is internally quenched peptide probe with CM PWALSGRS (SEQ ID NO: 688).
In data set [2] the test system is internally quenched peptide probe with CM PWGLSARS (SEQ ID NO: 691).
Data set [3] relates to internally quenched peptide probe with CM AWGLSGRS (SEQ ID NO: 686).
Data set [4] concerns internally quenched peptide probe with CM PWGLSG (SEQ ID NO: 684).
Data set [5] has as its system internally quenched peptide probe with CM PWGLSGR (SEQ ID NO: 163).
The test system of data set [6] is internally quenched peptide probe with CM LSGRSPAGL (SEQ ID NO: 694).
In data set [7] the test system is internally quenched peptide probe with CM LSGKSPWGL (SEQ ID NO: 178).
The subject of data set [8] is internally quenched peptide probe with CM PWGASGRS (SEQ ID NO: 689).
Data set [9] relates to internally quenched peptide probe with CM PWGLSGAS (SEQ ID NO: 692).
Data set [10] relates to internally quenched peptide probe with CM WGLSGRS (SEQ ID NO: 685).
For data set [11], the system named is internally quenched peptide probe with CM PWGLSGRS (SEQ ID NO: 12).
Data set [12] relates to internally quenched peptide probe with CM RSPWGL (SEQ ID NO: 90).
In data set [13] the test system is internally quenched peptide probe with CM LSGRSPWGL (SEQ ID NO: 177).
The test system of data set [14] is internally quenched peptide probe with CM PWGLSGKS (SEQ ID NO: 150).
The subject of data set [15] is internally quenched peptide probe with CM PAGLSGRS (SEQ ID NO: 687).
Data set [16] deals with internally quenched peptide probe with CM PWGLSGRA (SEQ ID NO: 693).
Data set [17] deals with internally quenched peptide probe with CM PWGLRS (SEQ ID NO: 48).
In data set [18] the test system is internally quenched peptide probe with CM PWGLAGRS (SEQ ID NO: 690).

matrix metalloprotease 9 (MMP9), sequence (chain, as listed by the source): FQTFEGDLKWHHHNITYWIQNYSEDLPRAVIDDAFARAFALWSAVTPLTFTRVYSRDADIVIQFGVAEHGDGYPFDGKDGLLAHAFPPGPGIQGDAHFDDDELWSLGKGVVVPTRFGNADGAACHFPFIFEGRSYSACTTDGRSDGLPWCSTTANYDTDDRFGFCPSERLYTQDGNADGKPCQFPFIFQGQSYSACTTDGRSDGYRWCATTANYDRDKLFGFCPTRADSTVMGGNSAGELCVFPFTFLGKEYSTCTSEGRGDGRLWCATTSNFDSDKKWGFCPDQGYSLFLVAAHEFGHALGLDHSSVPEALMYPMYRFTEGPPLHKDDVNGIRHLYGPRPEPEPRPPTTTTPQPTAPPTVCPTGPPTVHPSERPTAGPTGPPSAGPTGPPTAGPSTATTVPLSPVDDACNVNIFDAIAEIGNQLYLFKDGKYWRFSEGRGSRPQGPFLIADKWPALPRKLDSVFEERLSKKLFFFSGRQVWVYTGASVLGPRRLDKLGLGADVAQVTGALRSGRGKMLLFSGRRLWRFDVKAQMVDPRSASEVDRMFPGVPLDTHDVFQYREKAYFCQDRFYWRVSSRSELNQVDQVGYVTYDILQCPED

As for matrix metalloprotease 9 (MMP9), the Probe Cleavage (pM/s) in data set [1] turned out to be 12800 pM/s; in data set [2] it was 17500 pM/s; in [3], 2070 pM/s; in data set [4], 13000 pM/s; in data set [5], 17200 pM/s; in data set [6] it was 1630 pM/s. Besides, the Probe Cleavage (pM/s) was determined as 630 pM/s in data set [7]; 456 pM/s in data set [8]; 16400 pM/s in data set [9]; 581 pM/s in [10]; 7620 pM/s in data set [11]; 25500 pM/s in data set [12]. The Probe Cleavage (pM/s) in data set [13] came to 1070 pM/s; in data set [14], 5360 pM/s; in data set [15] it was 16200 pM/s; in data set [16] it was 17500 pM/s; in data set [17], 3830 pM/s; in data set [18], 13700 pM/s. In addition, the Probe Cleavage (kcat/KM (M^-1 s^-1)) in [11] is 150000 M⁻¹ s⁻¹; in data set [12] it was 870000 M⁻¹ s⁻¹; in data set [14], 130000 M⁻¹ s⁻¹; in data set [17], 150000 M⁻¹ s⁻¹.

Source of the values: patent US20250215095.
